{"source": "paper PMC5609113", "about": "“Substrate Specificity and Inhibitor Sensitivity of Plant UDP-Sugar Producing Pyrophosphorylases” (Frontiers in Plant Science, 2017)", "key": {"Arabidopsis UGPase2": {"biological_target": "T1, Arabidopsis UGPase2 (Arabidopsis thaliana, UniProt P57751)", "T1 construct": "gene UGP1; recombinant, expressed in E. coli, purified to homogeneity as earlier reported", "T1 sequence (P57751 2-470)": "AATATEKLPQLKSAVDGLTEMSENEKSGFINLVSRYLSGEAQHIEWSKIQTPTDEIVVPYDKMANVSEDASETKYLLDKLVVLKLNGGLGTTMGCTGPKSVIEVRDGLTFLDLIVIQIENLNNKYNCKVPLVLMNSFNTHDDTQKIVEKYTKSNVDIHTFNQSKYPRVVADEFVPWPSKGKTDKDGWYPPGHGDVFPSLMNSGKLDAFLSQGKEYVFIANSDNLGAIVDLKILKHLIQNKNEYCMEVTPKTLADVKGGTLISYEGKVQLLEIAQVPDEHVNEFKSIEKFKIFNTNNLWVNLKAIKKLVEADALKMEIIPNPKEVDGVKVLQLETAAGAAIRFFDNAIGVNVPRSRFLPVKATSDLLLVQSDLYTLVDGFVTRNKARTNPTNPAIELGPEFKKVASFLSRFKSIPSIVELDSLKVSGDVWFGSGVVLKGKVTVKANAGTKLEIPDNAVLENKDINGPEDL", "assay": "Pi release from PPi, phosphomolybdate colorimetry", "type": "biochemical", "details": "1 mM Glc-1-P; 1 mM UTP; 5 mM MgCl2; pH 7.5; room temperature"}, "barley UGPase": {"biological_target": "T2, barley UGPase (Hordeum vulgare, UniProt Q43772)", "T2 construct": "recombinant, expressed in E. coli, purified to homogeneity as earlier reported", "T2 sequence (Q43772 whole entry)": "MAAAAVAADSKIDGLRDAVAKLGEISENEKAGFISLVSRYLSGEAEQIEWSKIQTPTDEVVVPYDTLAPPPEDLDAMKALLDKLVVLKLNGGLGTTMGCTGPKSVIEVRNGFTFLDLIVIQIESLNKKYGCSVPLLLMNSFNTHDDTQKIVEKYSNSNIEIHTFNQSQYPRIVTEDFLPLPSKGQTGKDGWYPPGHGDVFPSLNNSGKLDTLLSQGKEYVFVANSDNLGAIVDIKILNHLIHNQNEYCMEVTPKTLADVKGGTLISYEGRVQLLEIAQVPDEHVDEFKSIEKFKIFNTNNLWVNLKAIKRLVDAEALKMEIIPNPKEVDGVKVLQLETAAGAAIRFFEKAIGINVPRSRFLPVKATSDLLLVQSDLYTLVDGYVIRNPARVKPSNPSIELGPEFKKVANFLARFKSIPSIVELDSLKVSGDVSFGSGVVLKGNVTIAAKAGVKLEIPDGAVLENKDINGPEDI", "assay": "Pi release from PPi, phosphomolybdate colorimetry", "type": "biochemical", "details": "forward reaction, 5 mM MgCl2, pH 7.5, room temperature"}, "O=P(O)(O)OP(=O)(O)O": {"system": "O=P(O)(O)OP(=O)(O)O", "assay": "purified protein", "type": "biochemical, Arabidopsis thaliana", "details": "reverse reaction, co-substrate UDP-Glc, 5 mM MgCl2, pH 7.5"}, "[1]": {"system": "O=c1ccn([C@@H]2O[C@H](CO[P@@](=O)(O)O[P@@](=O)(O)O[C@H]3O[C@H](CO)[C@@H](O)[C@H](O)[C@H]3O)[C@@H](O)[C@H]2O)c(=O)[nH]1", "assay": "purified protein", "type": "biochemical, Arabidopsis thaliana", "details": "reverse reaction, co-substrate PPi, 5 mM MgCl2, pH 7.5"}, "[2]": {"system": "CC(=O)N[C@H]1[C@@H](OP(=O)(O)O)O[C@H](CO)[C@H](O)[C@@H]1O", "assay": "Pi release from PPi, phosphomolybdate colorimetry", "type": "biochemical, Arabidopsis thaliana", "details": "forward reaction, co-substrate UTP, 5 mM MgCl2, pH 7.5, room temperature"}, "[3]": {"system": "O=P(O)(O)O[C@H]1O[C@H](CO)[C@@H](O)[C@H](O)[C@H]1O", "assay": "Pi release from PPi, phosphomolybdate colorimetry", "type": "biochemical, Arabidopsis thaliana", "details": "forward reaction, co-substrate UTP, 5 mM MgCl2, pH 7.5, room temperature"}, "[4]": {"system": "O=c1ccn([C@@H]2O[C@H](COP(=O)(O)OP(=O)(O)OP(=O)(O)O)[C@@H](O)[C@H]2O)c(=O)[nH]1", "assay": "Pi release from PPi, phosphomolybdate colorimetry", "type": "biochemical, Arabidopsis thaliana", "details": "forward reaction, co-substrate GalNAc-1-P, 5 mM MgCl2, pH 7.5, room temperature"}, "Arabidopsis UGPase1": {"biological_target": "T3, Arabidopsis UGPase1 (Arabidopsis thaliana, UniProt Q9M9P3)", "T3 construct": "gene UGP2; recombinant, expressed in E. coli, purified to homogeneity as earlier reported", "T3 sequence (Q9M9P3 2-469)": "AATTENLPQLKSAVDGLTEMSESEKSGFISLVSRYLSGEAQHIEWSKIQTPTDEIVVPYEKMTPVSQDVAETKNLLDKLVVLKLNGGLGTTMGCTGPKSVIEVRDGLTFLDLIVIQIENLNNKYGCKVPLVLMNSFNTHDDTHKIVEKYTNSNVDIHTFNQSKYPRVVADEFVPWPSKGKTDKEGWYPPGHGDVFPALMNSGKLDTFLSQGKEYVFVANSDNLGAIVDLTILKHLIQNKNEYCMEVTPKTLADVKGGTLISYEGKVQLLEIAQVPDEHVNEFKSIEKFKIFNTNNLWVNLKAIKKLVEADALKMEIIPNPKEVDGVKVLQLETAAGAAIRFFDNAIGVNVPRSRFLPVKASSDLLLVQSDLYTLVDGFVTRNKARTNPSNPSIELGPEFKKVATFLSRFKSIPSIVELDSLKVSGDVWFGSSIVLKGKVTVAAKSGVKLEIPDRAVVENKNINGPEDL", "assay": "Pi release from PPi, phosphomolybdate colorimetry", "type": "biochemical", "details": "forward reaction; 5 mM MgCl2; pH 7.5; room temperature; estimate, clouding at and above 3 mM"}, "[5]": {"system": "O=P(O)(O)O[C@H]1O[C@H](CO)[C@@H](O)[C@H](O)[C@H]1O", "assay": "Pi release from PPi, phosphomolybdate colorimetry", "type": "biochemical, Hordeum vulgare", "details": "forward reaction, co-substrate UTP, 5 mM MgCl2, pH 7.5, room temperature"}, "[6]": {"system": "C[C@H]1O[C@H](OP(=O)(O)O)[C@H](O)[C@@H](O)[C@H]1O", "assay": "Pi release from PPi, phosphomolybdate colorimetry", "type": "biochemical, Arabidopsis thaliana", "details": "forward reaction, co-substrate UTP, 5 mM MgCl2, pH 7.5, room temperature"}, "[7]": {"system": "O=C(O)[C@H]1O[C@H](OP(=O)(O)O)[C@H](O)[C@@H](O)[C@H]1O", "assay": "Pi release from PPi, phosphomolybdate colorimetry", "type": "biochemical, Arabidopsis thaliana", "details": "forward reaction, co-substrate UTP, 5 mM MgCl2, pH 7.5, room temperature"}}}
{"compound": "O=c1ccn([C@@H]2O[C@H](COP(=O)(O)OP(=O)(O)OP(=O)(O)O)[C@@H](O)[C@H]2O)c(=O)[nH]1", "note": "[UTP]", "values": [{"measurement": "Pi release from PPi, phosphomolybdate colorimetry", "setting": "Arabidopsis UGPase2", "result": "plant UGPases are highly specific for Glc-1-P and UTP as substrates"}]}
{"compound": "O=P(O)(O)O[C@]1(CO)O[C@H](CO)[C@@H](O)[C@@H]1O", "note": "[Fru-2-P]", "values": [{"measurement": "Km", "setting": "barley UGPase", "result": "> 10", "unit": "mM"}]}
{"compound": "O=P(O)(O)O[C@H]1O[C@H](CO)[C@H](O)[C@H](O)[C@H]1O", "note": "[Gal-1-P]", "values": [{"measurement": "Km", "setting": "barley UGPase; estimate from near-linear rate up to 10 mM", "result": "> 10", "unit": "mM"}]}
{"compound": "Arabidopsis UAGPase2 (Arabidopsis thaliana)", "values": [{"measurement": "Km", "setting": "O=P(O)(O)OP(=O)(O)O", "result": 0.32, "unit": "mM"}, {"measurement": "Km", "setting": "[1]", "result": 0.21, "unit": "mM"}, {"measurement": "Km", "setting": "[2]", "result": 1.0, "unit": "mM"}, {"measurement": "Km", "setting": "[3]", "result": 3.2, "unit": "mM"}, {"measurement": "Km", "setting": "[4]", "result": 3, "unit": "mM"}]}
{"compound": "O=P(O)(O)OCC1(O)O[C@H](CO)[C@@H](O)[C@@H]1O", "note": "(some centres unmarked) [Fru-1-P]", "values": [{"measurement": "Km", "setting": "Arabidopsis UGPase1", "result": "> 10", "unit": "mM"}, {"measurement": "Km", "setting": "barley UGPase; estimate, clouding at and above 3 mM", "result": "> 10", "unit": "mM"}]}
{"compound": "barley UGPase (Hordeum vulgare)", "values": [{"measurement": "Km", "setting": "[5]", "result": 0.45, "unit": "mM"}]}
{"compound": "Arabidopsis USPase (Arabidopsis thaliana)", "values": [{"measurement": "Km", "setting": "[6]", "result": 3.4, "unit": "mM"}, {"measurement": "Km", "setting": "[7]", "result": 1.3, "unit": "mM"}]}
{"compound": "O=P(O)(O)O[C@H]1O[C@H](CO)[C@@H](O)[C@H](O)[C@H]1O", "note": "[Glc-1-P]", "values": [{"measurement": "Pi release from PPi, phosphomolybdate colorimetry", "setting": "Arabidopsis UGPase2", "result": "plant UGPases are highly specific for Glc-1-P and UTP as substrates"}]}
